Protein stability index data for 36 sequences are collected here from the supplement of paper PMC10567573.

± gives the standard deviation.

The data set can be described thus: protein stability index of a GFP-peptide fusion (GPS, HEK-293T) (PSI 1-6); higher = more stable. The following applies: c terminus: a fixed tail appended.
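Also: 24-mer peptide tiles fused after GFP, lentivirally expressed, FACS-sorted into six equal bins by GFP/DsRed ratio, decoded by Illumina sequencing, PSI is the read-weighted mean bin number.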

As for DVKDKETTENENTKFEVRLLRDPA [CHGB], the protein stability index is, setting by setting: (treatment: DMSO) 4.33 ± 0.41; (treatment: MLN4924 1 uM, 8 h) 4.7 ± 0.3.
The corresponding values for CRLGYGCGYEGCRYGCGHRGCGDG [KRTAP19-2] are 3.01 ± 0.46 and 3.11 ± 0.41.
As to AHSAAVTASGDCYTFGSNQHGQLG [NEK8], the protein stability index by setting is: (treatment: DMSO) 3.81 ± 0.2; (treatment: MLN4924 1 uM, 8 h) 3.94 ± 0.35.
The corresponding values for SQLDEDEHGLHTKYIHRMMQIEFI [TRAF3IP2] are 2.44 ± 0.1 and 2.56 ± 0.34.
The corresponding values for IVNDELYLNGASVLPHKSIGESVP [GMPPB] are 3.67 ± 0.24 and 3.4 ± 0.29.
The corresponding values for QSLRDLGVKISEQQAEKILKSMDK [SLC25A25] are 4.12 ± 0.28 and 4.19 ± 0.35.
Consider ELQGLDYCKPTRLDLLLDMPPVSY [SPSB1], for which the protein stability index is 2.31 ± 0.14 (treatment: DMSO) and 2.38 ± 0.11 (treatment: MLN4924 1 uM, 8 h).
The corresponding values for VGRIANTYNLTEVDKYVNSFVLKN [KLHL13] are 2.64 ± 0.32 and 2.85 ± 0.45.
The corresponding values for CRVPNSGKDEIEAAVKAAREAFPS [ALDH8A1] are 4.65 ± 0.27 and 4.54 ± 0.36.
The corresponding values for GAAEPITVKFANNPSQKTGQALLT [ELAVL3] are 4.1 ± 0.3 and 4.39 ± 0.055.
On to KALNLLPANTQINDIRIFLEKVLE [VPS39], for which the protein stability index came out at 2.11 ± 0.41 (treatment: DMSO) and 2.04 ± 0.29 (treatment: MLN4924 1 uM, 8 h).
Regarding LHILARDVHNRIVIRGLNTIPLFV [CTNNB1], the protein stability index (treatment: DMSO) is 2.73 ± 0.48 and the protein stability index (treatment: MLN4924 1 uM, 8 h) came to 2.68 ± 0.56.
PLPAGVPPLEDFEVLDGVEDAEGE [FKBP8] gave a protein stability index (treatment: DMSO) of 5.64 ± 0.26 and a protein stability index (treatment: MLN4924 1 uM, 8 h) of 5.44 ± 0.46.
The corresponding values for AVGGRDDTTELSSAERYNPRTNQW [KLHL20] are 4.47 ± 0.21 and 4.5 ± 0.16.
The corresponding values for GPGDEVARGIAGEKFDIVKKWGIN [ARFIP2] are 4 ± 0.17 and 4.2 ± 0.046.
For WVSHTAAMTGTFPAYGMSPSLSTI [DVL3], the protein stability index stood at 2.62 ± 0.34 (treatment: DMSO) and 2.29 ± 0.26 (treatment: MLN4924 1 uM, 8 h).
On to SLHPESGQENDATSPHFSTRHEGS [CD69], for which the protein stability index runs as follows: (treatment: DMSO) 5.4 ± 0.23; (treatment: MLN4924 1 uM, 8 h) 5.33 ± 0.14.
DNARLAVDDFRLKYENELALRQSV [KRT13]: the protein stability index (treatment: DMSO) amounted to 3.92 ± 0.14 and the protein stability index (treatment: MLN4924 1 uM, 8 h) was found to be 3.86 ± 0.18.
Consider DRESLCGASTSCLLPVQVVTEHPL [PCDHGC5], for which the protein stability index is 4.16 ± 0.18 (treatment: DMSO) and 4.39 ± 0.27 (treatment: MLN4924 1 uM, 8 h).
Regarding TSLQGLTGTPLVAGSPIRHENAVQ [ISL2], the protein stability index turned out to be 4.31 ± 0.33 (treatment: DMSO) and 4.36 ± 0.16 (treatment: MLN4924 1 uM, 8 h).
For the sequence LRCRKEFYQLVWSALPFITYLENK [POP5], the protein stability index stood at 2.41 ± 0.9 (treatment: DMSO) and 2.07 ± 0.17 (treatment: MLN4924 1 uM, 8 h).
For QRHRDILQVIYWARDVFIITGVWV [GOSR1], the protein stability index is, setting by setting: (treatment: DMSO) 2.72 ± 0.72; (treatment: MLN4924 1 uM, 8 h) 2.25 ± 0.73.
The sequence PEEMATYLRYVRRLDFFEKPDYEY [CSNK1G1] gave a protein stability index (treatment: DMSO) of 2.34 ± 0.26 and a protein stability index (treatment: MLN4924 1 uM, 8 h) of 2.26 ± 0.55.
The corresponding values for EKELISMECYDIYSKTWTKQPDLT [GAN] are 3.21 ± 0.25 and 3.28 ± 0.36.
The corresponding values for GRDDLESFQLEISGFLKEMACPYS [FAM98B] are 2.29 ± 0.3 and 2.67 ± 0.75.
The corresponding values for NGSLYGQASSERLGLDNRLFGHPG [ADAMTSL2] are 3.17 ± 0.53 and 3.46 ± 0.25.
For LHSISDSVLFLQEFGALMSNYSLP [TRIM29], the protein stability index (treatment: DMSO) stood at 2.41 ± 0.43 and the protein stability index (treatment: MLN4924 1 uM, 8 h) turned out to be 2.12 ± 0.26.
The corresponding values for ILGRTFFIYDCDPFTRRYYKEKFG [EFHC1] are 2.52 ± 0.63 and 2.24 ± 0.63.
Consider KEKELSIELANIRDEVAFHTAKCE [MTUS2], for which the protein stability index was found to be 4.46 ± 0.43 (treatment: DMSO) and 4.37 ± 0.46 (treatment: MLN4924 1 uM, 8 h).
The corresponding values for YNPSFEDHQTLLSAAHEVELQRQK [NOP53] are 4.19 ± 0.56 and 4.35 ± 0.44.
On to KRQAVNKAVANMQGEMDRKCKQVK [ZMYND11], for which the protein stability index by setting is: (treatment: DMSO) 4.6 ± 0.68; (treatment: MLN4924 1 uM, 8 h) 4.71 ± 0.45.
For the sequence APGPSRIADYLLLPLAEREHVSRA [TRIB1], the protein stability index worked out at 3 ± 0.46 (treatment: DMSO) and 3.38 ± 0.77 (treatment: MLN4924 1 uM, 8 h).
Turning to GQILELPWKEETFLVLQSLLERQV [FANCE], the protein stability index runs as follows: (treatment: DMSO) 1.9 ± 0.35; (treatment: MLN4924 1 uM, 8 h) 2.1 ± 0.34.
The corresponding values for QCDKRFRWSSDLNKHLTTHQGIKP [ZNF75A] are 3.02 ± 0.12 and 2.97 ± 0.24.
The corresponding values for LWELCHLWLRPEVHTKEQILELLV [ZNF396] are 2.22 ± 0.36 and 2.31 ± 0.072.
On to HGHYSMHCLHSAGHSQPDGAYSSA [DLX1], for which the protein stability index worked out at 3.48 ± 0.27 (treatment: DMSO) and 3.47 ± 0.23 (treatment: MLN4924 1 uM, 8 h).
